Here are results for 5 molecules from article PMC10397247.

One test concerns the target T1, 4H3066-AA.
T1 chain: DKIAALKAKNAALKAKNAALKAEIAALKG
Put plainly: two-hybrid library CCmax.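 Further: natural log of median RNA to DNA barcode read ratio; higher means stronger binding.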

A further test has as its target T2, 4H3102-AA.
T2 chain: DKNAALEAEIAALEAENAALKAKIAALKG
Nature of the test: two-hybrid library CCmax.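 Further: natural log of median RNA to DNA barcode read ratio; higher means stronger binding.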 As to conditions: mean of both orientations.

The target of another test is T3, 4H3121-AA.
T3 chain: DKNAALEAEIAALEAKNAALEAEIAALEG
Put plainly: two-hybrid library CCmax.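 Further: natural log of median RNA to DNA barcode read ratio; higher means stronger binding.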 As to conditions: mean of both orientations.

The next test has as its target T4, 4H3417-AA.
T4 chain: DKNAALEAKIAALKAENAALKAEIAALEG
Nature of the test: two-hybrid library CCmax.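 Further: natural log of median RNA to DNA barcode read ratio; higher means stronger binding.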 As to conditions: mean of both orientations.

Another test addresses T5, 4H3446-AA.
T5 chain: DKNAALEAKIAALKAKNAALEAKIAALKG
Nature of the test: two-hybrid library CCmax. As to conditions: mean of both orientations.

A further test concerns the target T6, 4H3591-AA.
T6 chain: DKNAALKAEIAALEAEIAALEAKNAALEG
Nature of the test: two-hybrid library CCmax. As to conditions: mean of both orientations.

The next test has as its target T7, 4H3628-AA.
T7 chain: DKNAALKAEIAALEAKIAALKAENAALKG
Nature of the test: two-hybrid library CCmax. As to conditions: mean of both orientations.

Another test concerns the target T8, 4H3666-AA.
T8 chain: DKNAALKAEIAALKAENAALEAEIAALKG
Put plainly: two-hybrid library CCmax. As to conditions: mean of both orientations.

The target of another test is T9, 4H3709-AA.
T9 chain: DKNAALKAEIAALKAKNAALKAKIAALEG
Put plainly: two-hybrid library CCmax. The note with it: mean of both orientations.

The target in a further test is T10, 4H391-AA.
T10 chain: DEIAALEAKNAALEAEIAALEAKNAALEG
Nature of the test: two-hybrid library CCmax. As to conditions: mean of both orientations.

The next test deals with T11, 4H3920-AA.
T11 chain: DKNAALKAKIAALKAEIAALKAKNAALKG
Nature of the test: two-hybrid library CCmax. The note with it: mean of both orientations.

The target in another test is T12, 4H3939-AA.
T12 chain: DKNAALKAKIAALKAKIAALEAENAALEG
Nature of the test: two-hybrid library CCmax. As to conditions: mean of both orientations.

A further test addresses T13, 4H428-AA.
T13 chain: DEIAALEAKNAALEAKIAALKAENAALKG
Nature of the test: two-hybrid library CCmax. As to conditions: mean of both orientations.

The next test deals with T14, 4H478-AA.
T14 chain: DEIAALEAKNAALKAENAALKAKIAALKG
Put plainly: two-hybrid library CCmax. The note with it: mean of both orientations.

Another test addresses T15, 4H497-AA.
T15 chain: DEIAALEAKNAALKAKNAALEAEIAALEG
Put plainly: two-hybrid library CCmax. As to conditions: mean of both orientations.

A further test addresses T16, 4H656-AA.
T16 chain: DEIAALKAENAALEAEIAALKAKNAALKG
Nature of the test: two-hybrid library CCmax. The note with it: mean of both orientations.

A further test has as its target T17, 4H675-AA.
T17 chain: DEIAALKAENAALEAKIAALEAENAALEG
Nature of the test: two-hybrid library CCmax. As to conditions: mean of both orientations.

A further test deals with T18, 4H971-AA.
T18 chain: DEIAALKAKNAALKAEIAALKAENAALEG
Put plainly: two-hybrid library CCmax. The note with it: mean of both orientations.

Another test deals with T19, 4H626-bA.
T19 chain: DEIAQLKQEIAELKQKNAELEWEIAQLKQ
Put plainly: two-hybrid library CCNG1.

The target in the next test is T20, 4H906-bA.
T20 chain: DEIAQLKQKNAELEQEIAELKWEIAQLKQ
Nature of the test: two-hybrid library CCNG1.

In a further test the target is T21, 4H390-AA.
T21 chain: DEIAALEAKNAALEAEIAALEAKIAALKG
Put plainly: two-hybrid library CCmax.

The target of the next test is T22, 4H3940-AA.
T22 chain: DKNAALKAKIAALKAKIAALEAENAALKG
Put plainly: two-hybrid library CCmax. The note with it: mean of both orientations.

Another test deals with T23, 4H510-AA.
T23 chain: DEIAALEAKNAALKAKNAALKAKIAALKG
Put plainly: two-hybrid library CCmax. As to conditions: mean of both orientations.

The target of another test is T24, 4H775-AA.
T24 chain: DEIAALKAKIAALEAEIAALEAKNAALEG
Nature of the test: two-hybrid library CCmax. As to conditions: mean of both orientations.

The next test concerns the target T25, 4H816-AA.
T25 chain: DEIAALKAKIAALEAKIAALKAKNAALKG
Nature of the test: two-hybrid library CCmax. The note with it: mean of both orientations.

The next test addresses T26, 4H87-AA.
T26 chain: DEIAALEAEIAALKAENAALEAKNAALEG
Put plainly: two-hybrid library CCmax. The note with it: mean of both orientations.

In the next test the target is T27, 4H683-bH.
T27 chain: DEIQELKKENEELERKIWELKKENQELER
Put plainly: two-hybrid library CCNG1.

Another test deals with T28, 4H754-bH.
T28 chain: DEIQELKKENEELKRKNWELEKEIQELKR
Put plainly: two-hybrid library CCNG1.

Another test addresses T29, 4H780-bH.
T29 chain: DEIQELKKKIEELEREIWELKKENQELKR
Nature of the test: two-hybrid library CCNG1.

In a further test the target is T30, 4H797-bH.
T30 chain: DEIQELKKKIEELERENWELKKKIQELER
Nature of the test: two-hybrid library CCNG1.

The target in another test is T31, 4H855-bH.
T31 chain: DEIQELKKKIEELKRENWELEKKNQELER
Nature of the test: two-hybrid library CCNG1.

In another test the target is T32, 4H918-bH.
T32 chain: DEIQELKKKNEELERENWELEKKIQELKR
Nature of the test: two-hybrid library CCNG1.

The target in a further test is T33, 4H949-bH.
T33 chain: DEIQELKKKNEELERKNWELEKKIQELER
Nature of the test: two-hybrid library CCNG1.

The target in another test is T34, 4H953-bH.
T34 chain: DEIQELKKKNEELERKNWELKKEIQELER
Put plainly: two-hybrid library CCNG1.

For the next test, the target named is T35, 4H968-bH.
T35 chain: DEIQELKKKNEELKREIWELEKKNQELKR
Nature of the test: two-hybrid library CCNG1.

A further test addresses T36, 4H369-AA.
T36 chain: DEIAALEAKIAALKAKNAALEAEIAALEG
Nature of the test: two-hybrid library CCmax.

The next test deals with T37, 4H3922-AA.
T37 chain: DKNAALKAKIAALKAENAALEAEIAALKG
Put plainly: two-hybrid library CCmax. As to conditions: mean of both orientations.

For another test, the target named is T38, 4H4033-AA.
T38 chain: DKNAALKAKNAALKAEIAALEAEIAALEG
Nature of the test: two-hybrid library CCmax. The note with it: mean of both orientations.

A further test has as its target T39, 4H481-AA.
T39 chain: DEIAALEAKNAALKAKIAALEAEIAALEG
Put plainly: two-hybrid library CCmax. As to conditions: mean of both orientations.

For another test, the target named is T40, 4H55-AA.
T40 chain: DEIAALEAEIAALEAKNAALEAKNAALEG
Put plainly: two-hybrid library CCmax. As to conditions: mean of both orientations.

The next test has as its target T41, 4H662-AA.
T41 chain: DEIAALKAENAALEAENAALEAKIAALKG
Put plainly: two-hybrid library CCmax. As to conditions: mean of both orientations.

With DKIAALKAKNAALKAKNAALKAEIAALKG [4H3066-AA], the interaction score with 4H3066-AA is -0.506; with 4H3102-AA, 0.0998; in the test with 4H3121-AA it was -0.941; with 4H3417-AA it was -2.18; in the test with 4H3446-AA it was -1.7; with 4H3591-AA, -1.59. The interaction score was -1.85 with 4H3628-AA; 0.0105 in the test with 4H3666-AA; -1.94 with 4H3709-AA; -1.09 in the test with 4H391-AA; -1.87 in the test with 4H3920-AA; -2.16 in the test with 4H3939-AA. For the same molecule, the interaction score was -1.26 with 4H428-AA; 1.25 with 4H478-AA; -0.971 in the test with 4H497-AA; 0.231 in the test with 4H656-AA; -1.19 with 4H675-AA; -1.81 with 4H971-AA.

Regarding DEIAQLKQEIAELKQKNAELEWEIAQLKQ [4H626-bA], the interaction score with 4H626-bA is 0.86; with 4H906-bA, -1.23.

As for DEIAALEAKNAALEAEIAALEAKIAALKG [4H390-AA], the interaction score in the test with 4H390-AA was 2.23; in the test with 4H3940-AA, -0.115; in the test with 4H510-AA it was 1.57; with 4H775-AA, -0.316; in the test with 4H816-AA, 0.183; in the test with 4H87-AA it was -1.41.

For DEIQELKKENEELERKIWELKKENQELER [4H683-bH], the interaction score with 4H683-bH is 0.562; in the test with 4H754-bH it was -0.187; with 4H780-bH, -0.661; with 4H797-bH it was -0.161; with 4H855-bH, -0.174; with 4H918-bH it was -1.01. Also, the values for the interaction score with 4H949-bH, with 4H953-bH and in the test with 4H968-bH were -0.385, -1.23 and 1.12, respectively.

Regarding DEIAALEAKIAALKAKNAALEAEIAALEG [4H369-AA], the interaction score is -0.526 with 4H369-AA; 0.000191 in the test with 4H3922-AA; -0.678 in the test with 4H4033-AA; -0.912 with 4H481-AA; -0.33 in the test with 4H55-AA; 1.3 with 4H662-AA.
